{"source": "patent US8722043B2", "about": "“Induction of p53 expression by neutralization of neuropilin-2 for the treatment of cancers” (Diaclone, priority 2008, dated 2014)", "molecules": {"B1": {"name": "ITAC-B1: anti-human neuropilin-2 murine monoclonal antibody, VH SEQ ID No. 2, VL SEQ ID No. 4, produced by hybridoma CNCM 1-4054 (antibody, listed as Mus musculus, V domains shown)", "VH": "EVKLQESGAELVKPGASVKLSCTVSGFNIKDTYIHWVIQRPEQGLEWLGRIDPANGNTKYDPKFQGKATITADTSSNTAYLQLSSLTSEDTAVYYCARWAVVGDYWGQGTTLTVSS", "VL": "YCDHPLYKFLHVSAGDRVTITCKASQSVSDDVAWYQQKPGQSPKLLIYSASNRYTGVPDRFTGSGYGTDFTFTISTVQPEDLAVYFCQQDYSSPTFGSGTKLELK"}}, "key": {"VEGFR1": {"tested_on": "VEGFR1", "assay": "Western blotting of VEGFR1 phosphorylation", "assay_type": "cell-based, human", "settings": "20 μg/ml, 24 hours; HT29-NRP-2 and Colo320^siRNA-ctrl cells; treated versus not treated", "method": "The possible effect of the ITAC-B1 antibody on the degree of phosphorylation of a VEGF receptor (VEGFR1), and also on the phosphorylation of the AKT protein which is activated by means of the VEGF receptors, was studied on HT29-NRP-2 and Colo320^siRNA-ctrl tumour cells.\nThe cells were cultured for 24 hours in RPMI medium+10% FCS in the presence of the BZ1 control antibody at 20 μg/ml, of ITAC-B1 at 20 μg/ml or of 5-FU at 50 μg/ml. A “nontreated cell” control was added (“medium” control). The cells were then isolated and lysed, and the phosphorylation of VEGFR-1 and of AKT was evaluated by Western blotting on the cell protein extracts, using antibodies directed against nonphosphorylated VEGFR1 (anti-VEGFR1 rabbit polyclonal antibody) or phosphorylated VEGFR1 (anti-phospho-VEGFR1^Tyr1213 rabbit polyclonal antibody, R&D systems) or antibodies directed against nonphosphorylated AKT (rabbit polyclonal antibody C67E7, Cell Signaling technology) or phosphorylated AKT (anti-phospho-AKT^Ser473 rabbit polyclonal antibody DE-9, Cell Signaling technology). The results are represented in FIGS. 16 and 17."}, "[1]": {"tested_on": "Colo320^siRNA-ctrl cells (express NRP-2)", "assay": "MTT assay for tumour cell proliferation", "assay_type": "cell-based, human", "settings": "5 μg/ml antibody; 24, 48 or 72 hours", "text": "(§1) The MTT proliferation assay is based on the reduction of 3-(4,5-dimethylthiazol-2-yl)-2,5-diphenyltetrazolium bromide), by the mitochondrial succinate dehydrogenase of active live cells, to give formazan. The coloration intensity (OD) induced by this reaction is proportional to the number of live cells present during the assay, and to the metabolic activity thereof.\n(§2) 4000 cells per well of Colo320^siRNA-ctrl cells (control cells transfected with an empty vector) or of Colo320^siRNA-NRP-2 cells (transfected with an siRNA targeting NRP-2), in 100 μl of DMEM medium containing 10% of inactivated FCS, were seeded into a 96-well Maxisorp plate. After adhesion of the cells, 5 μg/ml of ITAC-B anti-NRP-2 antibody or 5 μg/ml of control antibody were added. After culture for 24, 48 or 72 hours, 10 p. 1 of MTT reconstituted at 5 mg/ml in PBS were added to each culture well. The plates were then incubated for 3 hours in the dark, at 37° C. and 5% CO2, and centrifuged, and then the supernatant was removed. 200 p. 1 of DMSO were then added to each well. The optical density was read within an hour, at 570 nm, after shaking with the plate. The assay was carried out in triplicate.\n(§3) Panels A and B of FIG. 11 represent, respectively, the results obtained in the proliferation assay carried out with the Colo320^siRNA-ctrl or Colo320^siRNA-NRP-2 cells. […]"}, "[2]": {"tested_on": "Colo320^siRNA-NRP-2 cells (not expressing NRP-2)", "assay": "MTT assay for tumour cell proliferation", "assay_type": "cell-based, human", "settings": "5 μg/ml antibody; 24, 48 or 72 hours", "text": "as §1, §2, §3"}, "HT29-NRP-2 tumour cells": {"tested_on": "HT29-NRP-2 tumour cells", "assay": "HT29-NRP-2 subcutaneous xenograft, tumour volume", "assay_type": "in vivo, immunodeficient mice", "method": "HT29-NRP-2 tumour cells were injected subcutaneously into 20 immunodeficient mice, at a rate of 1×10^6 cells per mouse, in the right flank. 10 days after the injection, the tumours measure approximately 5 mm×5 mm.\nIn accordance with the protocol described above, group B was inoculated with ITAC-B1 at D0 (12 mg/kg), D3 (6 mg/kg), D7 (12 mg/kg) and D10 (6 mg/kg). Group C was inoculated with 20 mg/kg of 5-FU from D0 to D4 and then with 100 mg/kg at D9. Group D was inoculated with ITAC-B1 at D0 (12 mg/kg), D3 (6 mg/kg), D7 (12 mg/kg) and D10 (6 mg/kg) and with 20 mg/kg of 5-FU from D0 to D4 and 100 mg/kg of 5-FU at D9.\nThe tumours were measured twice a week, and the volume of the tumours was calculated with the formula: V (mm^3)=d^2×D/2.\nFIG. 21 represents the tumour volume as a function of time. Group A (PBS control) is represented by (⋄), group B (mice inoculated with the ITAC-B1 antibody) is represented by (▪), group C (mice inoculated with 5-FU) is represented by (Δ), and group D (mice inoculated both with the ITAC-B1 antibody and with 5-FU) is represented by (x)."}, "[3]": {"biological_target": "T1, neuropilin-2 on HT29-NRP-2 tumour cells (Homo sapiens, UniProt O60462)", "T1 construct": "expressed in transfected cells; host or cells: HT29 (human colorectal cancer) and P815 (murine mastocytoma) cells, G418-selected", "T1 sequence (O60462 21-931)": "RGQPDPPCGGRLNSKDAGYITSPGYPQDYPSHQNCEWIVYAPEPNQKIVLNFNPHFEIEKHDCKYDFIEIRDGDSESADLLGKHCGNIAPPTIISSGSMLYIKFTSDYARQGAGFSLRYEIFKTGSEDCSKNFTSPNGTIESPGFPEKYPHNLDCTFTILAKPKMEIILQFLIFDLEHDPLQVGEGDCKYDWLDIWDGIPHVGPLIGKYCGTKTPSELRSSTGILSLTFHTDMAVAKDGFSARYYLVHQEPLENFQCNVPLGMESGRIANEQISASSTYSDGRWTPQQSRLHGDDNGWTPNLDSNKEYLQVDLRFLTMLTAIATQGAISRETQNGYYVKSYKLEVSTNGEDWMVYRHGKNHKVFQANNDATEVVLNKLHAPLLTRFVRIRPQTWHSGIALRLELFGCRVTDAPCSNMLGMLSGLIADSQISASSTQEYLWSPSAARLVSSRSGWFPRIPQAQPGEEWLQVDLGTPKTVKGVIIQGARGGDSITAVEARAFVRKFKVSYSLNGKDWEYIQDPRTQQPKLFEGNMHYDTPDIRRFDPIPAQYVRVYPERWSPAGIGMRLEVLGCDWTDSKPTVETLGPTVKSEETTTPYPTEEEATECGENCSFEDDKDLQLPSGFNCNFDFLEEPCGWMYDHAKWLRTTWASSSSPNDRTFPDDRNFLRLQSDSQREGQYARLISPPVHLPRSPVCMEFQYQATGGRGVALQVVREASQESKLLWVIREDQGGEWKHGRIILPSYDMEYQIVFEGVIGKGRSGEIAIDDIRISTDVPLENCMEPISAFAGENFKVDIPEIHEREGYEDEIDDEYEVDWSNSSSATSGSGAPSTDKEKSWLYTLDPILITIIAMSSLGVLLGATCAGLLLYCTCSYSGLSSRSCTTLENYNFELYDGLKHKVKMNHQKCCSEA", "assay": "Competition between VEGFa and ITAC-B1 for recognition of neuropilin-2 (flow cytometry)", "assay_type": "binding", "settings": "preincubation with VEGF 1000 ng/ml for 15 minutes", "method": "These cells were then incubated with the ITAC-B1 antibody or with a control isotype antibody (BZ1 antibody), and analysed by flow cytometry as described in Example 2 above."}}}
{"molecule": "B1", "values": [{"measurement": "phosphorylation status of VEGFR", "setting": "VEGFR1", "result": "similar"}, {"measurement": "proliferation (OD at 570 nm)", "setting": "[1]", "result": "less than that of the cells alone and that observed in the presence of the control antibody"}, {"measurement": "proliferation (OD at 570 nm)", "setting": "[2]", "result": "identical to that of the control cells and to that observed in the presence of the control antibody"}, {"measurement": "tumour volume", "setting": "HT29-NRP-2 tumour cells; group B: ITAC-B1 intraperitoneally D0 12 mg/kg, D3 6 mg/kg, D7 12 mg/kg, D10 6 mg/kg", "result": "reduction in tumour volume is observed starting from D14"}, {"measurement": "tumour volume", "setting": "HT29-NRP-2 tumour cells; group D: ITAC-B1 combined with 5-FU, same regimens", "result": "more marked"}, {"measurement": "binding to the tumour cells in the presence of VEGFa", "setting": "[3]", "result": "does not prevent the binding of ITAC-B1 to the tumour cells"}]}
